Experiment: soluble on expression in E. coli; label from the status in PepcDB or PDB records

Row | Sequence | soluble on expression in E. coli
1 | MWLLQLMQQQHSIDMMKKQGLKLEAQDLYNPNGVSLKDAVGIFGGGCTGEIISPEGLILTNHHCGYSSIQQHSSVEHDYLTDGFWATSRDQELPTPGLKFTFIERIEDITDIVNAKIAAKEITESQSFTGAFLEGLAKELYEKSDLKDKKGIVPQALPFYAGNKFYLFYKKIYPDVRMVAAPPSSVGKFGGETDNWMWPRHTGDFSMFRIYADANGEPAEYSASNTPLKTKKHLSISIKGLKEGDYAMIMGFPGRTSRYLTVSEVKERMESTNEPRIRIRGARLAVLKEVMNASDKIRIQYANKYAGSSNYWKNSIGMNKAIIDNDVLGTKAEQEAKFAEYAKAQNNTEYANVVKKIDDLVAQTAPLNYQLTCLTEVFFGAIEFGNSMLTKTREALVDKNDSLIKVRLEGLKENFKSIHNKDYDHEVDRKVAKALLPLYAEMIPANQRPAIYKVIEQKYKGDYNKFVDDMYDKSIFANQANFDKFLKKPTVKAIDEDLALQYAQSKYDQYGNLLDQLKELDKELALLHKTYIRGLGEMKLPVPSYPDANFTIRLTYGNVKPYDPKDGVHYNYYTTTKGILEKENPEDREFVVPAKLKELIEKKDYGRYALPNGDMPVCFLSTNDITGGNSGSPVLNENGELIGCAFDGNWESLSGDINFDNNLQRCINLDIRYVLFILEKLGNCGHLINEMTIVE | not soluble
2 | MWLYYLQVVMDMRVYVEGYGCVLNTADTEIIKNSLKKHGFEVVNNLEEADIAIINTCVVRLETENRMIYRINELKNLGKEVVVAGCLPKALKNKVKGFLHIYPREAHKAGEILKNYVEKHYRMPYIEEDINKTLYKKLDYLKPSLITPLPICEGCIGNCSYCIVKIARGGLISYPREKIVNKAKELINKGAKCLLITAQDTACYGFDIGDNLANLLNELTQIKGEFIMRVGMMHAKNAELILDELIEVYQNEKVGKFLHLPLQSGDDEILKRMKRGYTVDEFKDIVNEFRRKIKNLCFTTDIIVGFPGETEEQFQNTLEVLRELKPDYIHGAKYSQRKGTEAAKMKQIDTKIRKRRSEILDKLRRELSYLNNKKYIGKAMKVLVLDEGKGYTDNFKVVKFEGGEVGEFRKVKITDAKTFGLKGELILLEHHHHHH | soluble
3 | MWQKSALTTVSISLPQQAVYSGMRYEVNISAAKCDGTGVTFGTINNCTITLSLPAGASIITRHFSADL | not soluble
4 | MWSFRAWRRRRLLARHPVAEELWQRVRRHLPILDGLDADEDRRLRERAVLFLADKHLTALAGVDLDDFGRLLLAAQAQLPLLHLPELNWYQGFHELVLYPDDFVSPQKHRDASGVVHEFDDERSGETSLQGPVVLAWPGVVGGGGWDAYNLVIHELAHKLDMLNGDANGLPPLHAGMRIGDWASAMQAAYDEMNALLDRDPDAQTAIDPYAAEDPAEFFAVTSEYFFTAPDLLHEAYPAVYRQLQLFYRQDPLQRLRRLQAEHPDYREAAGDTTNG | not soluble
5 | MWSVTDSPLDDAIQEAKSAAQKAGFDTETFAAVQSKEGRTSFAFELEGLGSASSVSELEEAIEQIEGVDAKIVYPSAMAWISASRTLDPTLIVDAFQQHGVTATLTDSSLRRRLAWTDVEEGRYRRARARRFGSRVDEESRRFEIARREGFLHKRDETTRVVETTEVLFTARSLMTKAR | not soluble
6 | MYCQRLRQLRKAHKLTMEQLAEKIGIAKSSYGGYEAESKKPPLDKLVILARLYDVSVDYILGLTDDPDPKVERKNLKEFLEKPDIHWDGYKLTPEILDPIRKILKLVTANNN | not soluble
7 | MYDTIVIGAGQAGISIGYYLKQSDQKFIILDKSHEVGESWKDRYDSLVLFTSRMYSSLPGMHLEGEKHGFPSKNEIVAYLKKYVKKFEIPIQLRTEVISVLKIKNYFLIKTNREEYQTKNLVIATGPFHTPNIPSISKDLSDNINQLHSSQYKNSKQLAYGNVLVVGGGNSGAQIAVELSKERVTYLACSNKLVYFPLMIGKRSIFWWFDKLGVLHASHTSIVGKFIQKKGDPVFGHELKHAIKQKEIILKKRVIAAKQNEIIFKDSSTLEVNNIIWATGFRNPLCWINIKGVLDQEGRIIHHRGVSPVEGLYFIGLPWQHKRGSALLQGVGNDAEYIVKQMNGELEHHHHHH | soluble
8 | MYEAGTVEWRLTMVYLEQFRFPDAEVEFDFFLRQKRTCYDTYYPFQILSKHRFEQIDFEPVTILYGGNGTGKSTVLNIIAQKLHLLREAPFNQSSFYEDYLELCSFESAAHLPKDSRIITSDDVFDYMLNIRNLNEGIDRKREMLFEEYLDTKFAKFRMKSLDDYEQLKRVNNARRKTQSQFIRSELMDNVREYSNGESAFLYFTEKVTENALFLLDEPENSLSPAKQQELVKFIEDSARFFGCQFVIATHSPFVLAIRGAKIYDLDEEPVDVKRWTELENVRAYYDFFKKHASEF | not soluble
9 | MYHVFFNRRPTRPRLPRALYEQLAALPLNTEVNVHTTNETHYNALFLGFEPRTNNVSLLVDRFYKDGGRSLAIDATTITAIDLPVSMRPASSADSDDEEE | not soluble
10 | MYIIAHRGASGYAPENTIAAFDLAVKMNADMIELDVQLTKDRQIVVIHDDRVDRTTNGSGFVKDFTLEELQKLDAGSWYGPAFQGERIPTLEAVLKRYHKKIGLLIELKGHPSQVGIEEEVGQLLGQFSFSINNIVQSFQFRSVQRFRELYPSIPTAVITRPNFGMLSRNQMKAFRSFANYVNIKHTRLNRLMIGSINKNGLNIFAWTVNNQKTAAKLQAMGVDGIVTDYPDFIIKDGKHENILEHHHHHH | not soluble
11 | MYIPKHFESMELSRYKLSKKPPLGTLFSSKASRQGFFGWRTSSNKDDPDFGMCASHIPFVFVEFDNGEHKLIAHLARKNKHVEMLERVQKCLVVFQSVDSYISPAWFPMKKKTHKFVPTWDFAAVHVYGTPRIIRDDKDWLINMLSTLTDQEEEKRPEGENVRSKVERF | soluble
12 | MYKINDFEIMAPVGSRESLAAAIQAGADSIYFGIENLNMRARSANTFTIEDLREIARTCDEHGMKSYLTVNTIIYDKDIELMRTIVDAAKEAGISAVIAADVAVMSYANKIGQEVHLSTQLNISNAEALKFYAQFADVVVLARELNLEQVAEIYRQIQEEHICGPSGELIRIEMFCHGALCMAVSGKCYLSLHEMNHSANRGACMQICRRAYTVRDKDTDVELEVDNQYIMSPKDLKTIHFMNKMIDAGVRVFKIEGRARGPEYVRTVVECYKQAIRAYLDDSFTDEKIAAWDERLKTVFNRGFWDGYYLGQRLGEWTKNYGSAATERKIYVGKGIKYFSNIGVAEFLVEAAEVSVGDKLLITGPTTGAVFATLDEARVDLKPVETVKKGEHFSMKLDKIRPSDKLYKLVSTEELKKFKGL | not soluble
13 | MYLRPDEVARVLEKAGFTVDVVTNKTYGYRRGENYVYVNREARMGRTALIIHPRLKDRSSSLADPASDIKTCDHYQNFPLYLGGETHEHYGIPHGFSSRIALERYLNGLFGDEKTD | not soluble
14 | MYLVCGEALFDVFSLESAARSNELGFTAIAGGSPFNVAVGLRRLGVEAALFGGLSSDYLGARLRRVLEEEGVDCGFLVPSDAPTTLAMVGLDASGSAQYQFRGEGCADRQVRLEHLPTLDGRIRGLHVGSYTLVVTPVADTLLALVRRESGRRLVSLDPNVRLDPQPDIDLWRRRVEAFASHAHLIKASEEDLALLYPGRDPGEVARGWLNPRCRLVFVTHGGAGASVHCTHGSWSRPADTALPLRDTVGAGDTFQAATLAYLRRLDADSPAGLAALSREAIDAMLAFAIRAAAVTCSRVGPDLPFAHEL | not soluble
15 | MYLVTGATGQLGLRVVRRCITLGLPVRAFVRLTSQYELLKEWGAEIFIGDLQQPRDIQAAMKGVEAVICCHGSQLLSRAIQAIDYRATLDVIQAAQEQGVRYLTLISPLAVTGDRQQSPFLKAKYEVEQVLISSGLNYSIFRCPTLMSSLLPLAERFQQTGVYIVLGDPQHRLQLLSPDDLARCILIASQASQPAIFSMAHPEVFTRQEIADRLGRFFNRRPFVMTVPLSVIDGARQFLGVMSRDLDASLGTLRTLLAYESLCPASEIERAQTYFQLSFESLETFLGRYFLEHHHHHH | not soluble
16 | MYQSIHVNKGQGGWGTGLDLTPSEPRTKVVSITGGGIHPVALKIAELSGAEAVDGFKNSIPEEEMMCVVIDCGGTARIGVYPMKRIPTVDILPSSPSGPLAKHITEDIFVSGVKPEDIMVTSSEADPGKPFDREKFKEDYAKIKEDQQEASDLKEGYLVKFSRGIGKAMGVFYQAGRDSVDMLIKN | not soluble
17 | MYRFCVALTPSTSEDEQVVRKSEKPASKPPTPEVEDCTFSEKNNDQRKIEKETESEESSNLKFPPARPSIRNATNFRRIICISESDSGKEEPVVKKEVLKTNKLRISETKPEYPPELLQLEARLQELRAGRKNKQGRINRKFVAKPCGVVSGETPQRPFLEEMYYFNPQETGTASEIFDMLFPAKDTPNFRPWLDGHFSAPDLQFKQIEKQRQTKLHSYTGTTLQEKKRKKRKKILKSIQEILWLLHFQKHDDFLESTSRLTIKNFSCHFDEHQRLKLLRNNDLSLICNYQIGSENTPIFNQRSTDCMLRPVFIDGLSFMDMLIPISSSLPIISTRSLLEILLNFILDGCQTVIYLPDYYNDTTNQKVDDSTIFQFLCNSKLIQFVDGRSRRAVERQVLLEAEKVHGVFVSSAEEFLTRNAIQCFPVINRYSKRLDEFLICTVFLVNNLPKKILAQDFVEESRVLKPEGSSSAVSSTTVLEESHQKISGAMEDSEDEPADPQTLKQEYLIKEECSEISEDSEEGAIVDVASSSGDLSENRDQKSENEEFEYSPHQLTLEQQTYLISSMAQLSIFHFQRYRQIRVFLMIIKRYVPELLPSFMQKTRMDDVAMAIQDIQNGKDLLYWPIFSKIDN | not soluble
18 | MYRIGELAKMAEVTPDTIRYYEKQQMMEHEVRTEGGFRLYTESDLQRLKFIRHARQLGFSLESIRELLSIRIDPEHHTCQESKGIVQERLQEVEARIAELQSMQRSLQRLNDACCGTAHSSVYCSILEALEQGASGVKSGC | not soluble
19 | MYSMLKRVITEKDLLRQIRLLEQLLNVPQLTAKRLAAQIQTTERTVFSDLQYIRSQLPADWSIETDSSGIRLRNQGNAQTNELWSLFLPQSISIQLLKELLFTKELVTTSFLSTSGVSYETLKRHIKKMNQALRDFHLTIQLTTMTIQLIGAESNIRIFYHRLLVPFTHNNYFFDDYSIHEEHYFQFLKQVYSSELTVETEEIFGACWFFINTIRNKANCRVSQFSFDSKDVLFQLYQPSLAKLYASEGIYLQGEESFFAFFCFLESWNYDNVYGETLASALHTHYSQLRKSLQQFVTNLSTEEARPDLIQTNLLDNLLLLFIKYTESPTLSEQFQLEYQELMTEQAAEDLALSKSNQELLEILSRYTTIEEPTYFLSLASLLEKQAIYSIQAQTMTAYFLFQGEPAWKAFLQQELAAYLGTRVKLQAIEYVELSQLTLNEADIIISNFPLDHLDLPVFYLSLIPTKNELRRLAELTLHSYF | soluble
20 | MYTAEQKARIKWACRRGMLELDVVIMPFFEECFDSLTESEQDDFVALLESDDPDLFAWVMGHGRCENLGLAAMVDKIVAHNLSKVRLEHHHHHH | soluble
21 | MYTHNSSDSIDCNIQSLYRGPQPGRYVRPTGKAVKQVKMEPYSPYSWGDKPYHSLNYYLKQTFGEKIYKLALDGAMTCPNRDGTLGTGGCIFCSGGGSGDFAEPQHASVTEQIEAAKARVSAKIKNGRYIAYFQSYTNTYAPVDYLEALFREAVSHPDIAALSIGTRPDCLPPQVIRLLKEINKEKPVWIELGLQTIHESTAELIRRGYELPCFIDAVRRLKEAGLTVIVHVILGLPGETEDMMLETIRFLANHTPPVDGIKLQLLHVLKGTKLAALYEAAPFPVMTMEEYIDLILKCIRLLPPHIVIHRLSGDGPKKLLIAPEWSGNKRLFLNSLTRALRETGAYQGEWHRPRQP | not soluble
22 | MYVCKHCGSAMNKDVEIDIVGIKGNTLYVGECKWSNKKIDVRVLDRLRSKVPYLLKDLQVDNLSVVYYLFSRSGFDGLKETEEVKLVELKDLFR | not soluble
23 | MYVCLCHAITDTQIKNAVSQGDTSLADVKKRLGVADQCGKCARMAVQIIQNQLEIEPKYYEVA | soluble
